Experimental data as given in patent US8841272B2, “Double-stranded RNA-based nanoparticles for insect gene silencing” (Kansas State University Research Foundation, priority 2011, dated 2014).

Columns and labels:
[1] = tested on: AgCHS1; experiment: qPCR of AgCHS1 transcript level in mosquito larvae after larval feeding; format: in vivo, Anopheles gambiae; conditions: 3rd-instar larvae fed once a day for 4 days on dsRNA nanoparticles, vs GFP dsRNA nanoparticles
Procedure: (§1) A group of 15-20 3rd-instar mosquito larvae was transferred into a 500-ml glass beaker containing 100 ml of deionized water. One sixth of the gel slices that were prepared from 32 μg of dsRNA, as described above, were added into each beaker. Approximately an equal amount of the gel slices was used to feed the larvae once a day for a total of four days. Any potential phenotypic changes were visually examined in the larvae during the experiment. The transcript levels of AgCHS1 or AgCHS2, chitin contents, and other phenotypic changes were assessed in the larvae at the end of the experiment (i.e., day 4).
(§2) Total RNA was extracted from mosquito larvae with TRIzol reagent (Invitrogen, Carlsbad, Calif.) and 3.5 μg of total RNA was used for first strand cDNA synthesis using the First Strand cDNA Synthesis kit (Fermentas, Glen Burnie, Md.). The first strand cDNA was then used as template for PCR and qPCR. A gene encoding ribosomal protein S3, AgRPS3, was used as an internal reference. PCR was performed with a PCR Master Mix kit (Fermentas). The qPCR was performed using a Maxima SYBR Green qPCR Master Mix (Fermentas), and the 2^−ΔΔCT method was used to calculate the relative levels of AgCHS1 and AgCHS2 transcripts in the mosquito larvae fed on the food containing the AgCHS1 or AgCHS2 dsRNA-based nanoparticles as compared with the control larvae fed on the food containing the GFP dsRNA-based nanoparticles.
(§3) For data obtained from qPCR, relative expression levels in percentage were calculated by dividing the relative expression value (REV) of each gene in the AgCHS dsRNA-treated larvae by the REV of the same gene in the GFP dsRNA-treated larvae. After the percentage data of the relative AgCHS expression were transformed using arcsine square root transformation, the transformed data were subjected to ANOVA followed by Fisher's least significant difference (LSD) multiple comparisons to separate the means among the treatments using ProStat software (Poly Software International, Pearl River, N.Y.).

[2] = tested on: AgCHS2; experiment: qPCR of AgCHS2 transcript level in mosquito larvae after larval feeding; format: in vivo, Anopheles gambiae; conditions: 3rd-instar larvae fed once a day for 4 days on dsRNA nanoparticles, vs GFP dsRNA nanoparticles
Procedure: as §1, §2, §3

B1: dsAgCHS1-f2: dsRNA synthesized using residues 3,812 to 4,202 of SEQ ID NO: 1 as the template (nucleic acid, listed as Anopheles gambiae)
DNA: CAAAACGACGGACGAGAAGGCGCAGCTGATTCACATTGCCGATGCGCTGGACGCCATTACGAAGAAGATTGAGAATCTGGAAAAGCACATCGACCCGCACGGACATCATACGCGCAAGCGCACTGCGTCGGCGGGGTCGAAGGATCACCATCTCGGCTCGGTGGCGGAGGATACGGAGGACGATGATGAGGATGAAGATTCGGAGACTTCGACGCTGCAGCGCGACGAGCGCGACTTCCTCACCAACCCGTACTGGATCGAGGATCCGGATCTGAAGAAGGGCGAGGTGGACTTTATTTCCAGCACCGAGATCCAGTTCTGGAAGGACCTGATCGATAAGTACCTATACCCGATCGATCAAAACAAGGAGGAACAGGCACGTATTGCGCAC
modifications: double-stranded RNA
- repression of the transcript level of AgCHS1 [1]: 52.4%
- repression of the transcript level of AgCHS2 [2]: 57.9%

B2: dsAgCHS2-f2: dsRNA synthesized using residues 3,331 to 3,719 of SEQ ID NO: 3 as the template (nucleic acid, listed as Anopheles gambiae)
DNA: GCCAGCGCCGAAAAGGAGCAAATCGCACAAATTGCGGCATCGCTCAGCGAAATAAGTGTAAAAATGAAGGCACTGGAAATGAAATTAACCGGCAACGTCAGCGTAATGAGATCAGACGACGAAGATGATGACATCGGTAGTCTCGATATGCATCGTCCGGAAGGTAACCGTGGCCCATCCTCGCCATCCTCCACCTCGGGCGCCGCCTCCCCGATCCAGACGGTGAAAAATGATTCCCTCGAAGAGCCCGAGAAGCAGATTAACTATCTGCCGGATTGGTTGTACGACGTGGATTTGAAAAACGGCGACACTGAGACGATCTCCGCCTCGGAGGAGCAATTCTGGATTGAGCTGATCGAGAAGTATCTGAAGCCGCTCGATCTGTCGGA
modifications: double-stranded RNA
- repression of the transcript level of AgCHS1 [1]: none of these AgCHS2 dsRNAs repressed
- repression of the transcript level of AgCHS2 [2]: 48.8%

B3: dsAgCHS2-f1: dsRNA synthesized using residues 3,846 to 4,235 of SEQ ID NO: 3 as the template (nucleic acid, listed as Anopheles gambiae)
DNA: ACACATCGAGTGGTGGTTCAACGTGAAGAACAAGATCAGCTTTGACGAAAGCACGGTCGAGATCATGATCCGGCGCGAGTACCTGGAGCTCGAACCGATCGGTTTGGTGTTTGTGATGTTCTTCGGTTTGATTCTCATCATTCAGTTTGTGGCCATGCTGATGCATCGGTTCGGTACCATCTCCCAGATTCTTGCCTCCACCGAGCTGAACTGGTACTGTTCGAAGAAGGCTAAGGATATGTCACTCGATGCGGAACTGCGCGAGAATGCGGTCGAAATTGCACGTCGACTGCAGCGCCCCAAACCGCAGTGGGACGAGGAAGATCTAGAGGACGAGCAGAAAGCTATTGGACGTCGCGACACGATCCATCGCATTCTCTACCAGCACAA
modifications: double-stranded RNA
- repression of the transcript level of AgCHS1 [1]: none of these AgCHS2 dsRNAs repressed
- repression of the transcript level of AgCHS2 [2]: 63.4%

B4: dsAgCHS1-f1: dsRNA synthesized using residues 2,267 to 2,635 of SEQ ID NO: 1 as the template (nucleic acid, listed as Anopheles gambiae)
DNA: TGAAACGCACATCTTCTTCGATGACGCGTTCGAAATTTCGGACCACAGCGACGAGGACATTCAGTGTAATCGGTTCGTGAAGATTCTTGTCGACACCATCGACGAAGCTGCCTCGGAAGTGCATCAGACCAACATTCGATTGAGACCGCCCAAAAAGTACCCAACACCGTACGGTGGACGACTGGTGTGGACGCTGCCCGGTAAAACGAAGATGATTGCCCACCTGAAGGACAAGGATCGCATCCGGCACCGTAAGCGTTGGTCTCAGGTCATGTACATGTACTATCTGCTCGGCCACCGGCTGATGGAGCTGCCGATTTCCGTCGACCGTAAGGAGGTGATGGCGGAAAACACCTACCTGCTGACGCT
modifications: double-stranded RNA
- repression of the transcript level of AgCHS1 [1]: 62.8%
- repression of the transcript level of AgCHS2 [2]: 48.4%
